The target in assay [1] is T1, Bax (Homo sapiens, UniProt Q07812). Nature of the assay: Bax-induced apoptosis in transfected neuronal cells (DAPI staining). The class given is cell-based. Further details: expressed in transfected cells. On the procedure:
(A) HEK293T cells were transfected with pcDNA3-HA-Bax together with plasmids encoding GFP, GFP-HN(N), or GFP-HN(M). Cell lysates were immunoprecipitated with polyclonal anti-GFP antibody. Immunoprecipitates (IP) or cell lysates were analyzed by immunoblotting using anti-HA or anti-GFP antibodies, respectively. (B) CSM14.1 neuronal cells were co-transfected with pcDNA3-HA-Bax together with plasmids encoding GFP, GFP-HN(N), or GFP-HN(M). Percent apoptosis was determined 48 h later by DAPI staining (mean±SD; n=3).
Rat neuronal cell line CSM14.1 cells were transfected with various plasmids using the Lipofectamine reagent (Invitrogen). For transfection, 10×10^5 cells were plated per well using 6 well plates. Each well received 1 μg DNA plus […] of Lipofectamine. After 24 hours of transfection, the percentage of cell death was determined using 4′-6-diamidino-2-phenylindole (DAPI) staining. […] The data shown were obtained using the cytosolic form of Humanin; however, both cytosolic and mitochondrial forms of Humanin were tested and the results were the same.
Apoptosis assays were performed as follows. Both floating and adherent cells (after trypsinization) were collected 48 hr after transfection, fixed, and stained using 4′,6-diamidine-2′-phenylindole dihydrochloride (DAPI) for assessing apoptosis based on nuclear fragmentation and chromatin condensation (Fields and Song, supra (1989)).
Since Humanin co-immunoprecipitates with Bax but not Bak, the effects of Humanin over-expression on apoptosis induced by these members of the Bcl-2 family was compared. […] Similar results were obtained regardless of whether Humanin was fused to the N- or C-terminus of GFP, with both of these GFP fusion polypeptides localizing to the cytosol of cells.

The target in assay [2] is T1, Bax. Nature of the assay: Co-immunoprecipitation of GFP-Humanin fusion polypeptides with Bax in transfected cells. Format: binding. Further details: expressed in transfected cells; host or cells: HEK293T; key to Bax binding: +: ability to bind Bax was determined by co-immunoprecipitation assay; −: lacked Bax-binding activity. Conditions: for co-immunoprecipitation with tagged Bax: 293T/HEK293T cells, anti-GFP immunoprecipitation. From the text:
Humanin (HN) cDNA was sub-cloned into a Green Fluorescence Protein (GFP) expression vector GFP-Cl at the Xhol/Hind III sites, producing a GFP-HN fusion polypeptide. GFP and GFP-HN were transfected into 293T cells with pcDNA3-HA-Bax. Cell lysates from these cells were immunoprecipitated with anti-GFP antibody and subsequently blotted with anti-HA antibody. The lysates were also blotted with ani-GFP antibody to confirm polypeptide expression. […] The data shown were obtained using the cytosolic form of Humanin; however, both cytosolic and mitochondrial forms of Humanin were tested and the results were the same.
Co-immunoprecipitation assays were performed using Humanin polypeptides expressed as fusion polypeptides with the Green Fluorescent Protein (GFP) in human cells. Wild-type Humanin fused to GFP is referred to as GFP-HN and a mutant form of Humanin, where the cysteine at position 8 is replaced with proline, fused to GFP is referred to as GFP-C8P. […] Immunoblot analysis of lysates of the transfected cells confirmed production of all proteins. In addition, GFP-HN also coimmunoprecipitated endogenous Bax from cell lines, which contain relatively high levels of the Bax protein.
Immunoblotting and immunoprecipitations were performed as follows. Immunoblotting was performed as described previously (Fields and Song, Nature 340:245-246 (1989)). For co-immunoprecipitations, cells were cultured in 50 uM […] Valine Alanine Asparate fluoromethyl-ketone (zVAD-fmk) to prevent apoptosis. Cells were suspended in lysis buffer (50 mM Tris-HCl, pH7.4; 150 mM NaCl; 20 mM EDTA; 50 mM NaF; 0.5% NP-40; 0.1 mM Na3VO4; 20 ug/ml Leupeptin; 20 ug/ml Aprotinin; 1 mM DTT; and 1 mM PMSF). Lysates (200 ul diluted in 1 ml final volume of lysis buffer) were cleared by incubation with 15 ul of protein G-Sepharose 4B (Zymed) and then incubated with 15 ul of polyclonal antibody and 15 ul of protein G at 4° C. overnight. Beads were then washed 4 times with 1.5 mls lysis buffer before boiling in Laemmli sample buffer and performing SDS-PAGE/immunoblotting.
In order to explore whether a correlation exists between Humanin binding to Bax and Humanin-mediated suppression of apoptosis, Bax was co-expressed with various GFP-fusion polypeptides encoding wild-type, full-length Humanin or various truncation and site-specific mutants of Humanin (Table 1). Expression of all GFP-fusion polypeptides was confirmed by immunoblotting, and ability to bind Bax was determined by co-immunoprecipitation assay. Each Humanin mutant was scored for ability to suppress apoptosis induced by Bax over-expression by >50% using a 3:1 ratio of HN:Bax plasmid DNA. […] Based on these studies, an active region of the 24 amino-acid Humanin peptide, mapped to residues 7-17.

Assay [3] concerns Bax-deficient HCT116 cells. Nature of the assay: STS-induced apoptosis in Bax-deficient HCT116 cells. Format: cell-based, human.
In a further assay the target is T2, Bak (Homo sapiens, UniProt Q16611).
T2 sequence (Q16611 1-211): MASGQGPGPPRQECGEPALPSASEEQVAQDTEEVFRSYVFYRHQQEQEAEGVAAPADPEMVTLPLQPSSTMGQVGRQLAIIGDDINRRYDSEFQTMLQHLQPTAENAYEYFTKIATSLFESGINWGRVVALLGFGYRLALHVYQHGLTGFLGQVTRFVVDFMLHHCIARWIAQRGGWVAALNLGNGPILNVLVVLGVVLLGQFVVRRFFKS
Nature of the assay: Co-immunoprecipitation with Bcl-2 family proteins in HEK293T cells. The class given is binding. Further details: expressed in transfected cells; host or cells: HEK293T. The text has this: (A) HEK293T cells were transfected with pcDNA3-myc plasmids encoding Bax or other Bcl-2 family proteins with GFP, GFP-HN, or GFP-HN(C8P). Cell lysates were immunoprecipitated with polyclonal anti-GFP antibody. The immunoprecipitates or the lysates were blotted with anti-myc or anti-GFP antibodies, respectively. The slower migrating form of GFP seen in lane 1 (asterisk)represents an alternative form of GFP produced from the wild-type (control) p-EGFP-Cl plasmid (http://clonotech.com). (B) Testes of three-week-old mice were homogenized in lysis buffer (0.1% Triton X-100, 50 mM Tris-HCl, pH7.5, 1 mM EDTA, plus protease inhibitor cocktail). The lysates were immunoprecipitated with control rabbit serum or polyclonal anti-mouse Bax antibody. The immunoprecipitates or the lysates were subjected to electrophoresis in Tris/Tricine gels (16% T, 3% C), electroblotted to PVDF membrane, and immunoblotted with polyclonal anti-HN antibody or monoclonal anti-Bax antibody 6A7 (Trevigen). (C) The affinity (Kd) of Bax/HN interaction was measured by fluorescence polarization assay, using various concentrations of purified recombinant Bax and 40 nM rhodamine-conjugated HN peptide. Control peptide from CD40 is also shown (mean +Std Dev; n=3).
Furthermore, multiple Bcl-2 family proteins were surveyed for interactions with Humanin by coimmunoprecipitation experiments (FIG. 5A). […]

T1 sequence (Q07812 whole entry, species assumed): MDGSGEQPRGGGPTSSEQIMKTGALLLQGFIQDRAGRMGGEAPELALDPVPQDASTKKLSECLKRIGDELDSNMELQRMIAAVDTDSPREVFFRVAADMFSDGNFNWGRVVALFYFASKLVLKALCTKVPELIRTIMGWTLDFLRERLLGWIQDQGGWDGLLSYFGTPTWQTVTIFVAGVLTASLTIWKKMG

Regarding “GFP-HN: Wild-type full-length Humanin fused to Green Fluorescent Protein”, the “suppression of Bax-induced apoptosis, nuclear vs mitochondria-encoded form” value with Bax [1] (CSM14.1 cells, 48 h, DAPI) was “suppressed to comparable extents”. Moreover, in the assay with Bax [1] (CSM14.1 or PC-3 cells, transient co-transfection), the “suppression of apoptosis induced by Bax” value is given as “about half”. In addition, the “co-immunoprecipitation with tagged Bax” value with Bax [2] is “co-immunoprecipitated”; with Bax [2] (listed as GFP-HN(N)) it was “comparable amounts”. The Bax binding entry in the assay with Bax [2] (GFP-fusion polypeptides, co-immunoprecipitation) is “+”. The “co-immunoprecipitation of endogenous Bax” value in the assay with Bax [2] (cell lines with relatively high levels of Bax) was “coimmunoprecipitated”. Also, the “suppression of STS-induced apoptosis” value in assay [3] is listed as “failed to suppress”. The “co-immunoprecipitation with Bak” value with Bak is “did not co-immunoprecipitate”.
For “Humanin: 24 amino acid polypeptide, cytosolic form of human Humanin (SEQ ID NO:2); used as synthetic peptide or expressed fusion”, the Bax-induced apoptosis entry in the assay with Bax [1] (CSM14.1 cells, 24 hours after transfection, DAPI) is “decreased”. Besides, in the assay with Bax [2], the “co-immunoprecipitation with tagged Bax” value is given as “co-immunoprecipitate”.

These data come from patent US7422862B2, “Methods for identifying modulators of apoptosis” (The Burnham Institute, priority 2001, dated 2008).
